Experimental findings from patent US20160106861A1, “AXL ANTIBODY-DRUG CONJUGATE AND ITS USE FOR THE TREATMENT OF CANCER” (PIERRE FABRE MEDICAMENT, priority 2013, published 2016) are described below.

Test [1] deals with T1, rhMer-Fc (R and D Systems, cat N° 891-MR) (human, UniProt Q12866 26-499, limits assumed).
T1 construct: Bought protein; not shown: Fc of human IgG
T1 sequence (looked up): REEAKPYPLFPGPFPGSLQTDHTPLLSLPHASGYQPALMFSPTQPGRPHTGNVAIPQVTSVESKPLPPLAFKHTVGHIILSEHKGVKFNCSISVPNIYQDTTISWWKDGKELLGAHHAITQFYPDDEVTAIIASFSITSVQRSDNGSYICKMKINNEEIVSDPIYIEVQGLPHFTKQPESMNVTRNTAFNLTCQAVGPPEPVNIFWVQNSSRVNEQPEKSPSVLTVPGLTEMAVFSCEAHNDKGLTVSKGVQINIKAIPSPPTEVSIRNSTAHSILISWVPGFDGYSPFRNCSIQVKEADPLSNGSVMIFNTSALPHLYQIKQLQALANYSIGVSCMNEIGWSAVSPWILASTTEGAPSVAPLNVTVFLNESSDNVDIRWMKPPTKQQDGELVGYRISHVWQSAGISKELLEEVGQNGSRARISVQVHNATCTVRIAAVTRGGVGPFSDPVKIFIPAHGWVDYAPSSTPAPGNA
Put plainly: ELISA on coated protein.

The next test deals with SN12C cells. Put plainly: Internalization study by fluorescent immunocytochemistry (confocal microscopy). The test is classed as cell-based, human. The conditions noted are these: 10 μg/ml, 1 h and 2 h at 37° C. The method, then: Briefly, SN12C tumor cell line was cultured in RMPI1640 with 1% L-glutamine and 10% of FCS for 3 days before experiment. Cells were then detached using trypsin and plated in 6-multiwell plate containing coverslide in RPMI1640 with 1% L-glutamine and 5% FCS. The next day, 1613F12 was added at 10 μg/ml. Cells treated with an irrelevant antibody were also included. The cells were then incubated for 1 h and 2 h at 37° C., 5% CO2. For T 0 h, cells were incubated for 30 minutes at 4° C. to determine antibody binding on cell surface. Cells were washed with PBS and fixed with paraformaldehyde for 15 minutes. Cells were rinsed and incubated with a goat anti-mouse IgG Alexa 488 antibody for 60 minutes at 4° C. to identify remaining antibody on the cell surface. To follow antibody penetration into the cells, cells were fixed and permeabilized with saponin. A goat anti-mouse IgG Alexa 488 (Invitrogen) was used to stained both the membrane and the intracellular antibody. […] Cells were washed three times and nuclei were stained using Draq5. After staining, cells were mounted in Prolong Gold mounting medium (Invitrogen) and analyzed by using a Zeiss LSM 510 confocal microscope.

In the next test the target is T2, membrane Axl receptor (Homo sapiens, UniProt P30530).
T2 construct: endogenous in cells; host or cells: human tumor cell lines SN12C, Calu-1, MDA-MB435S, MDA-MB231, NCI-H125, MCF7 (Axl-negative), Panc1
T2 sequence (P30530 26-894): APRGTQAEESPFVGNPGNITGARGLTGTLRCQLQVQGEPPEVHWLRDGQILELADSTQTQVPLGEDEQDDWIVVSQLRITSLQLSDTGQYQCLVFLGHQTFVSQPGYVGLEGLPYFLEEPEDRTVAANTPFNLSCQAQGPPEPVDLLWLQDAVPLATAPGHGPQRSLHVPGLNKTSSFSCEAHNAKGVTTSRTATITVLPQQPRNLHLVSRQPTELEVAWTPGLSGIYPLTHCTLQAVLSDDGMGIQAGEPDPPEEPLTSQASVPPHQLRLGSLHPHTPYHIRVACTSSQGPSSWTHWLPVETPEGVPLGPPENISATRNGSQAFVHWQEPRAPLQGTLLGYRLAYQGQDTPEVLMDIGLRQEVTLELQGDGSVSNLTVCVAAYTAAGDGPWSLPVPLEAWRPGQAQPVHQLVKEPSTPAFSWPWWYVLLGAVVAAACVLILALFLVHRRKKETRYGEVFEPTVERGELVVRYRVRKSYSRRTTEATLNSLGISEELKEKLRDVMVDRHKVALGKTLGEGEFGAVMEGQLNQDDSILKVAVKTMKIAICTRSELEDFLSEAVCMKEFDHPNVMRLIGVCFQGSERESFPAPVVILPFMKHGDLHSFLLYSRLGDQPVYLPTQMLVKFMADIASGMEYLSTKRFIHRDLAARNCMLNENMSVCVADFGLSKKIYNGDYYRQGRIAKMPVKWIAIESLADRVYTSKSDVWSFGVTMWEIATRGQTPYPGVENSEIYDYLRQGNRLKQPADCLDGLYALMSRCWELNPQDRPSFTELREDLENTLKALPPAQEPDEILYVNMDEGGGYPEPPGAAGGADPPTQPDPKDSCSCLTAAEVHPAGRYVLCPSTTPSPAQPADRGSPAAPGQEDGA
The test is described as follows: FACS binding on human tumor cells. Conditions: various human tumor cells. How it is done:
For cell surface binding studies, two fold serial dilutions of a 10 μg/ml (6.66 10^−8 M) primary antibody solution (1613F12, MAB154 or mIgG1 isotype control 9G4 Mab) are prepared and are applied on 2·10^5 cells for 20 min at 4° C. After 3 washes in phosphate-buffered saline (PBS) supplemented with 1% BSA and 0.01% NaN3, cells were incubated with secondary antibody Goat anti-mouse Alexa 488 ( 1/500° dilution) for 20 minutes at 4° C. After 3 additional washes in PBS supplemented with 1% BSA and […], cells were analyzed by FACS (Facscalibur, Becton-Dickinson). At least 5000 cells were assessed to calculate the mean value of fluorescence intensity.
1613F12 dose response curves were prepared. MFIs obtained using the various human tumor cells were then analysed with Prism software.
Background: A flow cytometer gives signals particle by particle.

Test [2] addresses T3, recombinant human Axl-Fc (R and D Systems, cat N° 154AL/CF) (human, UniProt P30530 26-451).
T3 construct: Bought protein; also called rhAxl-Fc; rh Axl-Fc protein; not shown: Fc of human IgG (coating control with anti-human IgG Fc)
T3 sequence: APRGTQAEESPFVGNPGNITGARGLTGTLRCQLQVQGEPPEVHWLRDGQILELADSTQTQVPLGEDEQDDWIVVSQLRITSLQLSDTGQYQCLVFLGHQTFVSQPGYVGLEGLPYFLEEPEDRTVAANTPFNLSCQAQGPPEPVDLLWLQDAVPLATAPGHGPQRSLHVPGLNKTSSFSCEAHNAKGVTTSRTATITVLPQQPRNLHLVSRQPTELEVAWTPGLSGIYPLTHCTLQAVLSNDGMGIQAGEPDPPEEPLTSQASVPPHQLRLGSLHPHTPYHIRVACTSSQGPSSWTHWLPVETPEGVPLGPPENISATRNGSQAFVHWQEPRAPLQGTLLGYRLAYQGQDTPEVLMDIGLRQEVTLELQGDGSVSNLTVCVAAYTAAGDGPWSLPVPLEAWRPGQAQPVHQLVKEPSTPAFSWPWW
The test is described as follows: ELISA on coated rhAxl-Fc. On the technique in general: An ELISA detects its analyte on a solid surface through an enzyme-linked reagent.

B1: m1613F12 (murine 1613F12, hybridoma CNCM I-4505) (antibody, V domains shown)
VH: EVHLQQSGAELVKPGASVKLSCTASGFNIRDTYIHWVKQRPEQGLEWIGRLDPANGHTKYGPNFQGRATMTSDTSSNTAYLQLSSLTSEDTAVYYCARGAYYYGSSGLFYFDYWGQGTTLSVSS
VL: DVQITQSPSYLATSPGETITINCRASKSISKYLAWYQEKPGKTNKLLIYSGSTLQSGVPSRFSGSGSGTDFTLTISSLEPEDFAMYFCQQHHEYPLTFGAGTELELK
notes: Murine monoclonal antibody; also called Axl antibody
B1: the binding result in test [1] is given as “no binding”; in test [2] it was “binds”. Besides, in the test with SN12C cells, the “internalization (membrane and intracellular staining)” value is listed as “internalization of 1613F12 into SN12C cells”. Also, the “binding to membrane Axl receptor on human tumor cells (FACS, saturation curves)” value with membrane Axl receptor was “binds specifically to the membrane Axl receptor”.
